From patent US9809653B2, “Anti-LAMP1 antibodies and antibody drug conjugates, and uses thereof” (SANOFI, priority 2012, dated 2017)

Key:
[1] = target: T1, Hybrid LAMP1 / glycan-deleted LAMP1 transmembrane proteins (Mus musculus, UniProt P11438, A146K/E181G/G176S/K100R/K140R/K180R/L93T/N144D/N177S/S175N/T102A/Y92H); assay: Binding onto membrane-anchored hybrid or mutated LAMP1 proteins (293-F cells) by flow cytometry; parameters: species or system human/mouse; details: pXL6092 mLAMP1_hseq6-9-11_ΔGYQTI; Table 17 Experiment no2
T1 construct: expressed in transfected cells; host or cells: 293-F (HEK293-derived), transient transfection
T1 sequence (P11438 with tags, fused parts or gaps Y92H/L93T/K100R/T102A/K140R/N144D/A146K/S175N/G176S/N177S/K180R/E181G): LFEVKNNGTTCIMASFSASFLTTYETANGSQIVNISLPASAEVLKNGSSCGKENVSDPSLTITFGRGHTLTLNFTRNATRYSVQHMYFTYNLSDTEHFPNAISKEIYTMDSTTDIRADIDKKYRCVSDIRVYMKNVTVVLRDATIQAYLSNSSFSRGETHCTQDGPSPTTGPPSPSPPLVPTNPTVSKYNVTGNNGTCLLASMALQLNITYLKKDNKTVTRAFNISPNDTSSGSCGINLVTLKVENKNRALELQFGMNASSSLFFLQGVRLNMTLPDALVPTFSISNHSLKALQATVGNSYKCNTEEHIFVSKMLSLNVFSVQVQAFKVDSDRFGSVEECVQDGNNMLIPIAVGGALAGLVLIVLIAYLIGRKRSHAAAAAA
Experimental: Different LAMP1 proteins were expressed at the cell membrane of HEK293 cells after transient expression from mammalian plasmids encoding the entire coding sequence of LAMP1 deleted of the intracellular lysosome-targeting motif GYQTI and substituted by a 5-Ala repeat sequence.
Two days post transfection cells were processed, analyzed by flow cytometry (Guava® easyCyte™ 8HT) as mentioned in example 4.7, and the mean fluorescence was recorded. This fluorescence represents a semi-quantitative assessment of binding.

[2] = target: T2, LAMP1 in human tumoral and non-tumoral tissues (Homo sapiens, UniProt P11279); assay: IHC on frozen-OCT / AFA human tumoral and non-tumoral tissues; details: CR-LRB-010P, human non-tumoral colon and skin
T2 construct: from tissue; host or cells: human tumoral and non-tumoral tissue sections and PDX tumour sections (frozen-OCT, AFA, FFPE)
T2 sequence (P11279 29-417): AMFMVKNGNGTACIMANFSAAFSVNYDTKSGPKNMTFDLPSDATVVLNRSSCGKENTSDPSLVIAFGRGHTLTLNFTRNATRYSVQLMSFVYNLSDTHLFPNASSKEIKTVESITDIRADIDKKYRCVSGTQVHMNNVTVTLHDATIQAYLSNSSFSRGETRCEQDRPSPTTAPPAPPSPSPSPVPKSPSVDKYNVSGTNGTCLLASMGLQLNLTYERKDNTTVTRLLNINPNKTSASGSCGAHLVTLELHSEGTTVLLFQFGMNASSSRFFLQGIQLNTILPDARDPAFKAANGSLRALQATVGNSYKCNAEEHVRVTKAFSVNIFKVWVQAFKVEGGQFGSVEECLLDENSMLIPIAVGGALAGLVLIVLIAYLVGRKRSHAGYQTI
Experimental: Individual hybridoma supernatants raised against tumor tissue CR-LRB-010P were screened by IHC on a macroarray slide containing frozen sections of immunizing tumor (CR-LRB-010P), human non-tumoral colon and human non-tumoral skin. Frozen-OCT (from Optimal Cutting Temperature) specimens of non-tumoral colon and skin were obtained from surgical cases (commercial sources such as Asterand, US Biomax, Strasbourg Hospital). The automated immunostaining was performed unsing Ventana Discovery and Discovery XT automated systems (Ventana Medical Systems, Inc, USA).
Frozen 10 μm cryostat sections were incubated with IgG culture supernatants as primary antibody (unknown concentration, dilution ⅓ in Phosphate Buffer Saline, PBS) for 40 min at 37° C. Culture medium was used as negative control. A postfixation step with glutaraldehyde (0.05% in NaCl 0.9% w/v) for 4 min was done. The secondary antibody Affinipure rabbit anti-mouse IgG (315-005_008, Jackson Immunosearch Laboratories, Inc. USA) was used at 4.8 μg/mL and incubated for 12 min at 37° C. Immunostaining was done with UltraMap Red chromogenic detection kit according to manufacturers recommendations for 8 min. Cryostat sections were subsequently couterstaining with hematoxylin II (790-2208, Ventana Medical Systems, Inc USA) and bluing for 4 min (760-2037). […]
Sections immunostained with mAbs were analyzed by microscope (Nikon Eclipse E400). […]

Binding call [1]: Full binding
Mean fluorescence [1]: 499
B1: MAb1: murine monoclonal anti-LAMP1 antibody, VH SEQ ID NO: 1, VL SEQ ID NO: 5 (antibody, V domains shown)
VH: QVQLQQSGAELVKPGASVKMSCKASGYIFTNYNIHWVKKSPGQGLEWIGAIYPGNGDAPYSQKFKDKATLTADKSSSTTYMQLSRLTSEDSAVYYCVRANWDVAFAYWGQGTLVSVSA
VL: DIQMTQSPPSLSASLGGKVTITCKASQDIDRYMAWYQDKPGKGPRLLIHDTSTLQPGIPSRFSGSGSGRDYSFSISNLEPEDIATYYCLQYDNLWTFGGGTKLEIK
modifications: Antibody Fragment; antibody fragment
IHC reactivity on frozen sections [2]: showed evidence of tumor-associated reactivity
